Consider 3 molecules from patent US20250340655A1, “EPHA2-TARGETING ANTIBODIES AND THEIR APPLICATIONS IN CANCER TREATMENT” (TAIPEI MEDICAL UNIVERSITY, priority 2022, published 2025).

Square brackets hold non-standard residues; d marks the D form. Peptide text beside a SMILES is read from it. * marks the point of attachment. Dolaproine = CO[C@@H]([C@@H]1CCCN1)[C@@H](C)C(=O)O; Dil = CC[C@H](C)[C@H](NC)[C@@H](CC(=O)O)OC; X1 = C[C@@H](N*)[C@@H](O)c1ccccc1; NMeV = CN[C@H](C(=O)O)C(C)C

The conditions of assay [1]: Int J Mol Sci. 21 (9): 3286 (2020); cited from earlier work.
A further assay relates to hTERT HPNE. As to the kind of experiment: Growth inhibitory response to serially diluted MMAE, normal pancreatic cell line. It is filed as cell-based. The note with it: serially diluted MMAE (FIG. 10).
Assay [2] deals with BxPc-3 and Mia PaCa-2 cells. As to the kind of experiment: Molecule signaling by Western blotting. It is filed as cell-based, human. The method, then:
[…] The cells were collected and lysed using lysis buffer [50 mM Tris-HCl (pH 7.5), 50 mM NaCl, 5 mM ethylenediaminetetraacetic acid, and 1% Triton X-100], and a mixture of proteinase inhibitors (Roche Applied Science) was added. The protein concentration of the cell lysate was measured through the Coomassie Plus (Bradford) Protein Assay (Thermo Fisher Scientific). Samples were run on reducing SDS-PAGE for Western blotting analysis and were detected using antibodies against p-EphA2, EphA2, p-AKT, AKT, p-ERK, ERK, p-FAK, FAK, pSTAT3, STAT3 (Cell Signaling Technology), and β-actin (GeneTex).
Background: Immunoblotting shows a protein as a band on a membrane.

Assay [3] has as its system other Eph family proteins (EphA1-A8). In words: Flow cytometry binding specificity on 293T cells overexpressing EphA molecules: other family proteins. The conditions noted are these: cells overexpressing EphA1-A8 (FIG. 6A). On the procedure: (§1) To detect the binding specificity of scFv, 293T cells were transformed with EphA1-A8 plasmids individually for overexpression of different EphA molecules. The cell line was freshly prepared and washed with FACS buffer (2% FBS in PBS). The cells were seeded at 1×10^5 cells/well into a 96-well Ubottom plate and incubated with scFv for 1 h at 4° C. After the plate was washed with FACS buffer, the anti-hemagglutinin (HA) antibody was added for scFv binding detection (scFv was fused with a HA tag) and subsequently developed using an FITC-conjugated secondary antibody. Finally, the cell binding signal was analyzed using a FACS can flow cytometer.
For orientation: Flow cytometry measures light scatter and fluorescence of single cells or particles in a stream.

The subject of a further assay is HuCCT1, ssp-25, RBE, TFK. In words: MTS growth inhibition, cholagiocarcinoma cells. The note with it: four cell lines HuCCT1, ssp-25, RBE, Day 5. Set-up: dose or concentration left out as unconfirmed. It is filed as cell-based. The method, then:
The growth inhibitory effect of hSD5 scFv on the four strains of cholagiocarcinoma cells was tested under different concentrations. At indicated concentrations, hSD5 scFv interacted with the cancer cells for 5 days, and the effects on the growth of cancer cells were observed by MTS assay. (FIG. 17C)

Assay [4] has as its target T1, EphA2 (Homo sapiens, UniProt P29317). In words: Flow cytometry binding specificity on 293T cells overexpressing EphA molecules: EphA2. Also noted: expressed in transfected cells; host or cells: 293T. The note with it: flow cytometry (FIG. 6A). On the procedure:
as §1

The test system of assay [5] is Mia PaCa-2. As to the kind of experiment: Scratch wound healing assay, Mia PaCa-2. It is filed as cell-based, human. The note with it: Mia PaCa-2, wound healing assay (FIG. 5D). The method, then:
(§2) PAAD cells were seeded at 5×10^4 cells/well in a 24-well Transwell cell migration plate (Corning) and incubated with scFv for 2 days. In the assay, recombinant ephrin-A1 (Sino Biological) was added as a positive control. After scFv treatment, the cells were fixed with frozen 100% methanol for 10 min and stained with 0.01% crystal violet for 1 h at room temperature. After the pate was washed with ddH2O, the upper-layer cells were removed using cotton swabs. Cell staining was imaged using a microscope and analyzed using ImageJ. For the scratch wound healing assay, PAAD cells were seeded in a 6-well culture plate. The seeded cells in the well were scratched with a pipette tip to simulate a wound. After treatment with scFv and incubation for 36 or 72 h, the cells were imaged using a microscope. The wound areas were analyzed using ImageJ.
(§3) For the scratch wound healing assay, PAAD cells were seeded in a 6-well culture plate. The seeded cells in the well were scratched with a pipette tip to simulate a wound. After treatment with scFv and incubation for 36 or 72 h, the cells were imaged using a microscope. The wound areas were analyzed using ImageJ.

Assay [6] deals with T1, EphA2. As to the kind of experiment: Western blotting under reducing (SDS-PAGE) and non-reducing (Native-PAGE) conditions. It is filed as binding. The note with it: Native-PAGE vs SDS-PAGE (FIG. 3D). On the procedure: The recombinant EphA2 protein was transferred onto nitrocellulose membranes (GE Healthcare Life Sciences) after electrophoresis using sodium dodecyl sulfate-polyacrylamide gel (SDS-PAGE) or nativepolyacrylamide gel (Native-PAGE), and the membranes were incubated with using purified scFv antibodies to determine binding reactivity. The membranes were blocked with 5% skim milk and then incubated with scFv at room temperature for 1 h. After washing with PBST, the membranes were detected and developed using HRP-conjugated goat anti-chicken light chain antibodies. Finally, the 3,3′-diaminobenzidine substrate was added for color development until the desired color intensity was reached.

In assay [7] the test system is Panc-1. In words: Transwell migration assay, Panc-1. It counts as cell-based, human. The note with it: Panc-1, transwell migration assay (FIG. 5B). On the procedure: as §2
Assay [8] has as its target T2, endogenous EphA2 molecules on 4 pancreatic cancer cell lines (AsPc-1, BxPc-3, Panc-1, Mia PaCa-2) (Homo sapiens, UniProt P29317).
T2 construct: with endogenous EphA2 molecule expression; endogenous in cells; host or cells: AsPc-1, BxPc-3, Panc-1, Mia PaCa-2
As to the kind of experiment: Flow cytometry binding on pancreatic cancer cells. The note with it: 4 PAAD cell lines (FIG. 3E). The method, then:
Four PAAD cells AsPc-1, BxPc-3, Panc-1, and Mia PaCa-2 with endogenous EphA2 molecule expression, were analyzed through flow cytometry to determine the binding reactivity of indicated scFvs. Freshly prepared cancer cells were harvested and washed twice with PBS. Then, individual scFv was added and incubated at room temperature for 1 h. Bound scFv was visualized using goat anti-chicken light chain antibodies and donkey anti-goat antibodies conjugated with fluorescein isothiocyanate (FITC; Jackson ImmunoResearch Laboratories). An irrelevant scFv was used as the negative control, and commercially available goat anti-EphA2 antibodies were used as the positive control (R&D Systems) in the assay. The results were analyzed using a FACS can flow cytometer (BD Biosciences, Systems and Reagents).

The test system of assay [9] is BxPc-3. As to the kind of experiment: MTS cell proliferation assay, BxPc-3. It is filed as cell-based, human. Set-up: dose or concentration left out as unconfirmed. The conditions noted are these: BxPc-3, MTS, Day 5, scFv. The method, then:
(§4) PAAD cell proliferation was measured using a 3-(4,5-dimethylthiazol-2-yl)-5-(3-carboxymethoxyphenyl)-2-(4-sulfophenyl)-2H-tetrazolium (MTS) Cell Proliferation Assay Kit (Promega). The cells were seeded in a 96-well culture plate at a density of 5000 cells/well for attachment. Then, scFv at various concentrations was added to the cell culture and incubated for 5 days. Finally, MTS and phenazine methosulfate solutions were added and incubated for 90 min for development. After the SDS reagent was added to stop the reaction, the absorbance of each well was measured by determining the OD at 490 nm.

In assay [10] the target is T3, natural EphA2 molecule in the lysate of 4 pancreatic cancer cell lines (Homo sapiens, UniProt P29317).
T3 construct: with endogenous EphA2 molecule expression; endogenous in cells; host or cells: AsPc-1, BxPc-3, Panc-1, Mia PaCa-2
In words: Immunoprecipitation (pull down) from PAAD cell lysates. It counts as binding. The conditions noted are these: lysates of four PAAD cell lines (FIG. 3F). On the procedure: For the immunoprecipitation assay, 300 μg of each PAAD cell lysate was incubated with 50 μg of antiEphA2 scFv (scFv was fused with a His tag) at 4° C. overnight. On the next day, 30 μL of Ni^2+-charged sepharose was added to the mixture and incubated for 1 h at 4° C. After three rounds of washing with NiNTA wash buffer (50 mM NaH2PO4, 300 mM NaCl, and 10 mM imidazole, pH 8.0), the scFv-bound sepharose beads were resuspended in 50 μL of PBS buffer. Subsequently, the sepharose solution was denatured at 95° C. for 10 min and analyzed using SDS-PAGE. After the proteins were transferred to a polyvinylidene fluoride membrane, the membrane was detected using the anti-EphA2 antibody (R&D Systems) and anti-His (Proteintech Group) antibody at 4° C. overnight. On the next day, after washing with PBST, the membrane was incubated with HRP-conjugated secondary antibody (Jackson ImmunoResearch Laboratories). Finally, the chemiluminescence substrate was added for luminal signal detection.

For assay [11], the system named is BxPc-3 and Mia PaCa-2. In words: Scratch wound healing assay (FIG. 5C). It is filed as cell-based, human. The note with it: after 36 and 72 h of treatment with scFv. On the procedure: as §2, §3
For assay [12], the system named is Panc-1. As to the kind of experiment: MTS cell proliferation assay, Panc-1. It is filed as cell-based, human. Also noted: dose or concentration left out as unconfirmed. The conditions noted are these: Panc-1, MTS, Day 5, scFv. On the procedure: as §4
(In general: Formazan colour is commonly taken as a measure of viable cells.)

Assay [13] concerns BxPc-3 and Mia PaCa-2. As to the kind of experiment: Transwell migration assay (FIG. 5A). It counts as cell-based, human. Also noted: dose or concentration left out as unconfirmed. The note with it: scFv for 2 days. On the procedure: as §2
Assay [14] has as its system Mia PaCa-2. In words: MTS cell proliferation assay, Mia PaCa-2. It is filed as cell-based, human. Also noted: dose or concentration left out as unconfirmed. The conditions noted are these: Mia PaCa-2, MTS, Day 5, scFv. On the procedure:
as §4

The subject of the next assay is AsPc-1. In words: MTS cell proliferation assay, AsPc-1. It is filed as cell-based, human. Set-up: dose or concentration left out as unconfirmed. The conditions noted are these: AsPc-1, MTS, Day 5, scFv. On the procedure:
as §4

Assay [15] deals with BxPc-3. In words: Transwell migration assay, BxPc-3. It counts as cell-based, human. The conditions noted are these: BxPc-3, transwell migration assay (FIG. 5B). The method, then: as §2
Assay [16] concerns BxPc-3. As to the kind of experiment: Scratch wound healing assay, BxPc-3. It counts as cell-based, human. The note with it: BxPc-3, wound healing assay (FIG. 5D). On the procedure: as §2, §3

T1 sequence (P29317 24-976): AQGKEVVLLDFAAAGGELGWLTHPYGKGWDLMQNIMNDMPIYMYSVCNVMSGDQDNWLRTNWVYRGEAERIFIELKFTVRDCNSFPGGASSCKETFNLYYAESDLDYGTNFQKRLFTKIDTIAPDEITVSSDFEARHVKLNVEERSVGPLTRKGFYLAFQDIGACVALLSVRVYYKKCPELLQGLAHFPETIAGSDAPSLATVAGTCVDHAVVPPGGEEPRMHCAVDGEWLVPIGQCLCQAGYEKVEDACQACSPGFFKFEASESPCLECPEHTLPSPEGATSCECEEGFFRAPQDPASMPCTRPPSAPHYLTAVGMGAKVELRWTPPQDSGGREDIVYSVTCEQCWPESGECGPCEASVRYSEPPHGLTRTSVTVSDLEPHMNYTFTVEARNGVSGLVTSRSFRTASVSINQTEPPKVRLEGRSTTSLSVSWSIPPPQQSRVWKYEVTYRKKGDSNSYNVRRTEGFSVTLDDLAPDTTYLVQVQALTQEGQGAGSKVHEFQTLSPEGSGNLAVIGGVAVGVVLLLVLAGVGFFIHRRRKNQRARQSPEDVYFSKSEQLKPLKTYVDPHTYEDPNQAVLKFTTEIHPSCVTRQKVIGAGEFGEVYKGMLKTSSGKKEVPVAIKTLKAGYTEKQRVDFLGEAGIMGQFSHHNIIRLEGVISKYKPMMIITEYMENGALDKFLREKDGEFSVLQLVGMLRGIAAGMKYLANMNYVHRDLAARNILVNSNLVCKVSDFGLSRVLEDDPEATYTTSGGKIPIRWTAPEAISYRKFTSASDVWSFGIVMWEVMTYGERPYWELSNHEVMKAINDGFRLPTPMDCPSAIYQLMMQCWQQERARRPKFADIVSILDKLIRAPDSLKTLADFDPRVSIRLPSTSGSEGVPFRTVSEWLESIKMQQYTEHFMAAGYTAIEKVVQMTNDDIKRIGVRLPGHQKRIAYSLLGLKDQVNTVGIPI
T3 sequence (P29317 24-976): as above
T2 sequence (P29317 24-976): as above

On to `CC[C@H](C)[C@@H]([C@@H](CC(=O)N1CCC[C@H]1[C@H](OC)[C@@H](C)C(=O)N[C@H](C)[C@@H](O)c1ccccc1)OC)N(C)C(=O)[C@@H](NC(=O)[C@@H](NC)C(C)C)C(C)C` [MMAE, Monomethyl auristatin E] (H-[NMeV]V[Dil][Dolaproine]-X1), for which the “potency relative to doxorubicin” value in [1] is recorded as 100-1000 times. Also, in the assay with hTERT HPNE, the “growth inhibition of normal pancreatic cell line” value is listed as “only mild effect”.

B1: scFv hSD5: humanized anti-EphA2 scFv, SEQ ID NO: 12 (light chain SEQ ID NO: 8, heavy chain SEQ ID NO: 10) (protein)
scFv: LTQPPSVSVSPGQTVRITCSGSSGSYGWYQQKSPGQAPVTLIYDNDKRPSGIPERFSGSSSGSTSTLTISGVQAEDEADYYCGSADSSTYVGMFGGGTKLTVLGQSSRSSQVQLVESGGGLVQPGGSLRLSCAASGFTFSDYGMGWVRQAPGKGLEWVAGISAAGSFTPYGAAVKGRFTISRDNSKNTVYLQMNSLRAEDTAVYYCARIPSGYRAGEIYTWGQGTLVTVSS
On to B1, for which the “LAMP1 and LAMP2 levels” value in assay [2] (6 h after administration of scFv (FIG. 6C)) is listed as “upregulated levels”. In addition, the EphA2 degradation result in assay [2] (6 h after administration of scFv, dose-dependent (FIG. 6C)) is “degraded EphA2 molecules”. Moreover, in assay [2] (24 hours treatment (FIG. 6D)), the EphA2 level result is reported as “almost completely degraded”; the “amount of pEphA2” value is given as “decreased”; the “pSTAT3 and pFAK signals” value is “dose-dependent decrease”. Besides, the “cross-binding to other Eph family proteins” value in [3] was “does not exhibit cross-binding reactions”. Also, the growth inhibition in the assay with HuCCT1, ssp-25, RBE, TFK is recorded as 40%-70%. Besides, the “binding to cells overexpressing EphA2” value in the assay with EphA2 [4] is given as “specifically binds to EphA2 molecules”.

B2: scFv SD5: chicken derived anti-EphA2 scFv, SEQ ID NO: 11 (light chain SEQ ID NO: 7, heavy chain SEQ ID NO: 9) (protein)
scFv: LTQPSSVSANLGETVKIPCSGSSGSYGWYQQKSPGSAPVTLIYDNDKRPSDIPSRFFGSTSGSTSTLTITGVQAEDEAVYFCGSADSSTYVGMFGAGTTLTVLGQSSRSSTVTLDESGGGLQTPGGGLSLVCKASGFTFSDYGMGWVRQAPGKGLEFVAGISAAGSFTPYGAAVKGRATISRDNGQSTVRLQLNNLRSEDTGIYYCARIPSGYRAGEIYTWGQGTEVIVSS
With B2, the migration inhibitory effect with Mia PaCa-2 [5] is recorded as 65%; in the assay with BxPc-3 [16] it was 67%. Also, the “recognition of EphA2 protein in native and denatured form” value in the assay with EphA2 [6] is “can recognize EphA2 in the native form, but not in the denatured form”. In addition, the migration inhibition with Panc-1 [7] turned out to be 65%; in the assay with BxPc-3 [15], 91%. Moreover, the “binding response to EphA2 molecules on cancer cells” value in [8] was “significant binding response”. For the same molecule, the growth inhibition in the assay on BxPc-3 [9] is given as 58.5%; with Panc-1 [12], “approximately 80%”; with Mia PaCa-2 [14], “approximately 80%”; in the assay on AsPc-1, “approximately 80%”. For the same molecule, the “pull down of EphA2 from cell lysates” value in assay [10] was “captured free EphA2 molecules”. Further, the “migration of cancer cells in wound healing assay” value in the assay with BxPc-3 and Mia PaCa-2 [11] is “inhibited the migration of cancer cells”. Besides, the “number of migrated cancer cells” value with BxPc-3 and Mia PaCa-2 [13] was “reduced effectively”.
